Source: US5858752

Target: 32D c13 cells stably expressing the human Fuc-TIV (myeloid) enzyme
Assay: adhesion of 51Cr-loaded cells to plate-captured selectin/IgM fusion protein

fold binding density relative to untransfected cells: 10 fold
Substance: human E-selectin/IgM fusion protein (from UniProt P16581)
